We go through two substances from patent publication US20260116996A1 (REGENTS OF THE UNIVERSITY OF MINNESOTA, published 2026).

One data set has as its target mouse serpinB13 (mouse) (UniProt Q8CDC0). As to the kind of experiment: flow cytometry, isotype control staining in place of B29 and anti-EpCAM; the tissue of this panel is not named. For orientation: Flow cytometry measures light scatter and fluorescence of single cells or particles in a stream.
Data set [1] deals with T1, recombinant human serpinB13 (human, UniProt Q9UIV8 1-391).
T1 construct: The baculovirus-made protein (GenScript) was used for panning, ELISA and the cathepsin L assay; In the Luminex assay human serpinB13 was V5-His tagged and came from 293 cell lysates; also called rhB13
T1 sequence (looked up): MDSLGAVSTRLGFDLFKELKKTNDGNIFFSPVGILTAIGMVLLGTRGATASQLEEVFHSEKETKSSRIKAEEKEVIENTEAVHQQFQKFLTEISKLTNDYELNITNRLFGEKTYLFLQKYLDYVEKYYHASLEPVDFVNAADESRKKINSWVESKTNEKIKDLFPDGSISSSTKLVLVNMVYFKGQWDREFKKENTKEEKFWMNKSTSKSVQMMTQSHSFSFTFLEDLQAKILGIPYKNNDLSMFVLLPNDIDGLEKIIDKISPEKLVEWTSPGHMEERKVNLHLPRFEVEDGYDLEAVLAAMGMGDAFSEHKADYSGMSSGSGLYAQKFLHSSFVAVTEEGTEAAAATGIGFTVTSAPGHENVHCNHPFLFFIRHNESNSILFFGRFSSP

mouse serpinB13 (mouse), sequence (Q8CDC0 whole entry): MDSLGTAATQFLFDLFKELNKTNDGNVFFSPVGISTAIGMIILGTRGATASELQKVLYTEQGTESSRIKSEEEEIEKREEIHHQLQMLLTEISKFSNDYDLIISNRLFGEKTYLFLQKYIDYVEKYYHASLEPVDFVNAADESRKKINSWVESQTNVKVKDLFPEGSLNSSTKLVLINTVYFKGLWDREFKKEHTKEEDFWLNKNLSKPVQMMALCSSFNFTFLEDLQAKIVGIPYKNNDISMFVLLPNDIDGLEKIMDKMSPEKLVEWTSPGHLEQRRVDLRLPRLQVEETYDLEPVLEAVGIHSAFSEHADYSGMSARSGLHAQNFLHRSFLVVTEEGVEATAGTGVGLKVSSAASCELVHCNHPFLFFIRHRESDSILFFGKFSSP

As to Control Ab (antibody), the quadrant Q1 (SerpinB13-Alexa647 high, EpCAM low), percent of cells with mouse serpinB13 (mouse) is 0.43.

For the substance “cathepsin L (Cathepsin L Inhibitor Screening Kit, BioVision)”, in data set [1], the “substrate cleavage by CatL (fluorescence, kinetic mode)” value is reported as “Inhibition of a substrate cleavage by CatL with different doses of recombinant human serpinB13 over time”.
